# Data reported in patent US20240116985A1 (published 2024).
# Starred links: 1 amine or outer side, 2 acyl side, 3 side chain; linkers in the order of their positions; H or OH if unused. Positions of bridges follow the written chain, without caps; N, C: chain ends. Non-standard residues stand in square brackets, D forms with d. Primed or numbered codes have the meaning given here. B5(16) = 2-amino-2-(pent-4-en-1-yl)hept-6-enoic acid = 2,2-bis(4-pentenyl)glycine (stitching residue), C=CCCCC(CCCC=C)(N[*:1])C(=O)[*:2]; B5(21) = 2-amino-2-(pent-4-en-1-yl)hept-6-enoic acid, bis(4-pentenyl)glycine (stitching residue), C=CCCCC(CCCC=C)(N[*:1])C(=O)[*:2]; B5(9) = 2-amino-2-(pent-4-en-1-yl)hept-6-enoic acid (2,2-bis(4-pentenyl)glycine), C=CCCCC(CCCC=C)(N[*:1])C(=O)[*:2]; (NHCyBu)AsnR = N4-cyclobutyl-L-asparagine, O=C(C[C@H](N[*:1])C(=O)[*:2])NC1CCC1; (NHMe)AsnR = N4-methyl-L-asparagine, CNC(=O)C[C@H](N[*:1])C(=O)[*:2]; TOMe = O-methyl-L-threonine, CO[C@H](C)[C@H](N[*:1])C(=O)[*:2]; Bta = N[C@@H](Cc1csc2ccccc12)C(=O)O; αAllylPro = C=CC[C@@]1(C(=O)O)CCCN1; S8 = C=CCCCCCC[C@](C)(N)C(=O)O
# B1: I-542 (peptide)
# peptide: XDTXDEAAFQXFXQ
# modifications: not fully specified; N-terminal Ac; PL3 at 1; TOMe at 3; B5 at 4; S8 at 11; BztA at 13; C-terminal NH2; staples PL3(1)-B5(4) and B5(4)-S8(11) by olefin metathesis
# B2: I-638 (peptide)
# peptide: XDIXDEAAFQXFXP
# modifications: not fully specified; As printed: Ac-PL3-Asp-Ile-B5-Asp-Glu-Ala-Ala-Phe-Gln-S8-Phe-BztA-Pro-NH2; N-terminal Ac, C-terminal NH2; PL3 (1), B5 (4), S8 (11), BztA (13); staples PL3-B5 and B5-S8 by olefin metathesis
# notes: Stapled peptide composition; also called Ac-PL3-Asp-Ile-B5-Asp-Glu-Ala-Ala-Phe-Gln-S8-Phe-BztA-Pro-NH2
# B3: I-637 (peptide)
# peptide: XDIXDEAAFQXFXP
# modifications: not fully specified; As printed: Ac-PL3-Asp-Ile-B5-Asp-Glu-Ala-Ala-Phe-Gln-S8-Phe-BztA-Pro-NH2; N-terminal Ac, C-terminal NH2; PL3 (1), B5 (4), S8 (11), BztA (13); staples PL3-B5 and B5-S8 by olefin metathesis
# notes: as for B2
# B4: I-645 (peptide)
# peptide: Ac-[αAllylPro]DI[B5(9)]DEAAFQ[S8]F[Bta]V-NH2
# modifications: staple 1-4, 4-11
# notes: Stapled peptide composition; also called Ac-PL3-Asp-Ile-B5-Asp-Glu-Ala-Ala-Phe-Gln-S8-Phe-BztA-Val-NH2
# B5: I-640 (peptide)
# peptide: XDIXDEAAFQXFXS
# modifications: not fully specified; As printed: Ac-PL3-Asp-Ile-B5-Asp-Glu-Ala-Ala-Phe-Gln-S8-Phe-BztA-Ser-NH2; N-terminal Ac, C-terminal NH2; PL3 (1), B5 (4), S8 (11), BztA (13); staples PL3-B5 and B5-S8 by olefin metathesis
# notes: Stapled peptide composition; also called Ac-PL3-Asp-Ile-B5-Asp-Glu-Ala-Ala-Phe-Gln-S8-Phe-BztA-Ser-NH2
# B6: I-634 (peptide)
# peptide: Ac-[αAllylPro]DI[B5(16)]DEAAFQ[S8]F[Bta]L-NH2
# modifications: staple 1-4, 4-11
# notes: Stapled peptide composition; also called Ac-PL3-Asp-Ile-B5-Asp-Glu-Ala-Ala-Phe-Gln-S8-Phe-BztA-Leu-NH2
# B7: I-642 (peptide)
# peptide: XDIXDEAAFQXFXT
# modifications: not fully specified; As printed: Ac-PL3-Asp-Ile-B5-Asp-Glu-Ala-Ala-Phe-Gln-S8-Phe-BztA-Thr-NH2; N-terminal Ac, C-terminal NH2; PL3 (1), B5 (4), S8 (11), BztA (13); staples PL3-B5 and B5-S8 by olefin metathesis
# notes: Stapled peptide composition; also called Ac-PL3-Asp-Ile-B5-Asp-Glu-Ala-Ala-Phe-Gln-S8-Phe-BztA-Thr-NH2
# B8: I-635 (peptide)
# peptide: Ac-[αAllylPro]DI[B5(16)]DEAAFQ[S8]F[Bta]F-NH2
# modifications: staple 1-4, 4-11
# notes: Stapled peptide composition; also called Ac-PL3-Asp-Ile-B5-Asp-Glu-Ala-Ala-Phe-Gln-S8-Phe-BztA-Phe-NH2
# B9: I-633 (peptide)
# peptide: Ac-[αAllylPro]DI[B5(16)]DEAAFQ[S8]F[Bta]R-NH2
# modifications: staple 1-4, 4-11
# notes: Stapled peptide composition; also called Ac-PL3-Asp-Ile-B5-Asp-Glu-Ala-Ala-Phe-Gln-S8-Phe-BztA-Arg-NH2
# B10: I-644 (peptide)
# peptide: Ac-[αAllylPro]DI[B5(9)]DEAAFQ[S8]F[Bta]W-NH2
# modifications: staple 1-4, 4-11
# notes: Stapled peptide composition; also called Ac-PL3-Asp-Ile-B5-Asp-Glu-Ala-Ala-Phe-Gln-S8-Phe-BztA-Trp-NH2
# B11: I-639 (peptide)
# peptide: XDIXDEAAFQXFXS
# modifications: not fully specified; As printed: Ac-PL3-Asp-Ile-B5-Asp-Glu-Ala-Ala-Phe-Gln-S8-Phe-BztA-Ser-NH2; N-terminal Ac, C-terminal NH2; PL3 (1), B5 (4), S8 (11), BztA (13); staples PL3-B5 and B5-S8 by olefin metathesis
# notes: as for B5
# B12: I-643 (peptide)
# peptide: Ac-[αAllylPro]DI[B5(9)]DEAAFQ[S8]F[Bta]W-NH2
# modifications: staple 1-4, 4-11
# notes: as for B10
# B13: I-636 (peptide)
# peptide: Ac-[αAllylPro]DI[B5(16)]DEAAFQ[S8]F[Bta]Y-NH2
# modifications: staple 1-4, 4-11
# notes: Stapled peptide composition; also called Ac-PL3-Asp-Ile-B5-Asp-Glu-Ala-Ala-Phe-Gln-S8-Phe-BztA-Tyr-NH2
# B14: I-641 (peptide)
# peptide: XDIXDEAAFQXFXT
# modifications: not fully specified; As printed: Ac-PL3-Asp-Ile-B5-Asp-Glu-Ala-Ala-Phe-Gln-S8-Phe-BztA-Thr-NH2; N-terminal Ac, C-terminal NH2; PL3 (1), B5 (4), S8 (11), BztA (13); staples PL3-B5 and B5-S8 by olefin metathesis
# notes: as for B7
# B15: I-646 (peptide)
# peptide: Ac-[αAllylPro]DI[B5(9)]DEAAFQ[S8]F[Bta]V-NH2
# modifications: staple 1-4, 4-11
# notes: as for B4
# Target: T1, full-length beta-Catenin (Uniprot ID P35222) (Homo sapiens (Human), UniProt P35222 1-781)
# T1 construct: also called bCat; B-Catenin
# T1 sequence: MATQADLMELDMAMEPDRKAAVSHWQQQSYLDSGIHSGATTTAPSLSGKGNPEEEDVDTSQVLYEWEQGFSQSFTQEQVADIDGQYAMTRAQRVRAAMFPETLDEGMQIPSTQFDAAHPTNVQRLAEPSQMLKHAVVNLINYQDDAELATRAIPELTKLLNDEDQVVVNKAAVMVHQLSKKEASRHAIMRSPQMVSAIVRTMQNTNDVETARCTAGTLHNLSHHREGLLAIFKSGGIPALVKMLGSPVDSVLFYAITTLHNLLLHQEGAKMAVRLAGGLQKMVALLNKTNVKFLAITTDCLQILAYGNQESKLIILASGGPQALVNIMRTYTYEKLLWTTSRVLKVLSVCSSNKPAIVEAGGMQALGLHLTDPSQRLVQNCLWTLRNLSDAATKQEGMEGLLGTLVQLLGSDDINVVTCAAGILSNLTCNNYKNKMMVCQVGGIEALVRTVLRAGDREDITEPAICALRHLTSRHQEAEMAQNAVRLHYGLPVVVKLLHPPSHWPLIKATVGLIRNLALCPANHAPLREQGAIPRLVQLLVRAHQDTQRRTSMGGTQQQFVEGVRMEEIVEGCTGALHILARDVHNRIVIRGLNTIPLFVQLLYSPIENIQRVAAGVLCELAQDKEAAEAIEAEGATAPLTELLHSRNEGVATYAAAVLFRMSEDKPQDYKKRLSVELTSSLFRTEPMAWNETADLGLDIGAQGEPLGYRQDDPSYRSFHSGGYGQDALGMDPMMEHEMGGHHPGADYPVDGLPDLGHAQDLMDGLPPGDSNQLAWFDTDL
# Assay: fluorescence polarization competition; full-length beta-catenin with 5FAM-labeled TCF4 residues 10-53 probe as competitor
# Method: (§1) The plate was incubated protected from light for 60 minutes at 20° C. prior to read. Reads were performed on a CLARIOstar plate reader (BMG Labtech) in duplicate, and data were fitted to a 1:1 binding model with hill slope using an in-house script. All provided concentrations are final concentrations.
row,Binder,IC50
1,"Ac-[αAllylPro]DA[B5(21)][(NHMe)AsnR]DAAFV[S8]F[Bta]Q-NH2 (staple 1-4, 4-11) [I-540]",5000 nM
2,B1,109 nM
3,"Ac-[αAllylPro]DA[B5(21)][(NHCyBu)AsnR]DAAFV[S8]F[Bta]Q-NH2 (staple 1-4, 4-11) [I-539]",5000 nM
4,"Ac-[αAllylPro]D[TOMe][B5(21)]DEAAFQ[S8]F[Bta]Q-NH2 (staple 1-4, 4-11, It has the same description as I-542) [I-541]",180 nM

# Target: T2, full-length beta-Catenin (Uniprot ID P35222) (Homo sapiens (Human), UniProt P35222 2-781)
# T2 construct: Tags of the recombinant protein are not described for the FP assay; also called bCat; B-Catenin
# T2 sequence: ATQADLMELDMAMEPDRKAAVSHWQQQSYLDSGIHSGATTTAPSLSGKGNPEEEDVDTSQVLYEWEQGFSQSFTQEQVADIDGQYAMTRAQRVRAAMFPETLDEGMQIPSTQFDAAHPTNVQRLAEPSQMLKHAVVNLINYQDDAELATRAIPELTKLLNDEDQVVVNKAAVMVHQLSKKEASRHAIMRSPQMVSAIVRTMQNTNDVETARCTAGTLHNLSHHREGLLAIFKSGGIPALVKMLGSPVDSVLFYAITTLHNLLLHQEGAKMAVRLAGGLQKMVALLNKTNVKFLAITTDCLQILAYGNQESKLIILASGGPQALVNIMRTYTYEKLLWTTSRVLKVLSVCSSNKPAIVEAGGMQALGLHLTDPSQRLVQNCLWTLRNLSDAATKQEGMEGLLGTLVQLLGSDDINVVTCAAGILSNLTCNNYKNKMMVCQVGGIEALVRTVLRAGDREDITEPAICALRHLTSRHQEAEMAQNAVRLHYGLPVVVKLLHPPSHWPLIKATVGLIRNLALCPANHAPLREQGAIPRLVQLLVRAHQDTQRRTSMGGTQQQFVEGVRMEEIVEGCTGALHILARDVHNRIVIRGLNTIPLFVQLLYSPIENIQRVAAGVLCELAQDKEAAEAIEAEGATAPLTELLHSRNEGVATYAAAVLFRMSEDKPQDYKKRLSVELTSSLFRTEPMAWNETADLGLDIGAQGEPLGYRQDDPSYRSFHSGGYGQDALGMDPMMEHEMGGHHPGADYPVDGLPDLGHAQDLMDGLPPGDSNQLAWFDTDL
# Assay: fluorescence polarization competition; full-length beta-catenin, competitor 5FAM-TCF4 10-53
# Method: as §1
row,Binder,IC50
1,B2,3880 nM
2,B3,5000 nM
3,B4,395 nM
4,B5,87 nM
5,B6,425 nM
6,B7,118 nM
7,B8,171 nM
8,B9,88 nM
9,B10,808 nM
10,B11,109 nM
11,B12,958 nM
12,B13,198 nM
13,B14,122 nM
14,B15,461 nM
